This passage reports Geometric Mean : R1-A results from patent publication US20240360218A1.

The experiment deals with human PD-L1 (hPD-L1), full length, expressed on cells (human) (UniProt Q9NZQ7). In words: flow cytometry, AlexaFluor647-labelled antibody (5 ug/mL per p-1191) on monocyte-derived dendritic cells. Background: A flow cytometer gives signals particle by particle.
human PD-L1 (hPD-L1), full length, expressed on cells (human), sequence (Q9NZQ7 19-290 limits assumed): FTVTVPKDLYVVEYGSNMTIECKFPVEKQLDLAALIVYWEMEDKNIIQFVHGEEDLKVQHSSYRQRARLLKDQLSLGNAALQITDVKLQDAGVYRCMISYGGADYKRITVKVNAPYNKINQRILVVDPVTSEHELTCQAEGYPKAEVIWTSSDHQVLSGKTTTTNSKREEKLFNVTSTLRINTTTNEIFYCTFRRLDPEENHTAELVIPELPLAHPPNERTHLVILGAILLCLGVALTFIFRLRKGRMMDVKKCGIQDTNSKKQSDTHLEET

With Isotype hu IgG1 (D107) (antibody), the Geometric Mean : R1-A was 379.
